Results from the nanobody polyreactivity screen of Harvey et al. (2022).

Assay: yeast display, Sf9 membrane polyspecificity reagent, FACS + sequencing; frameworks hold sequencing errors
In short: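 Nanobodies came from a synthetic yeast display library in Saccharomyces cerevisiae BJ5465, induced with galactose for 36–48 hours and stained for 1 hour at 4 °C with 10% biotinylated, detergent-solubilized Sf9 membrane reagent. Cells were enriched on streptavidin microbeads and then FACS-sorted, with low and high (top ~1%) gates set on anti-HA fluorescence for expression and streptavidin fluorescence for reagent binding. Each polyreactivity label reflects the gate a clone came from. Genes were amplified by colony PCR, sequenced by MiSeq 2 × 250 and filtered by CDR length.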

Sequence	polyreactivity (PSR sort gate)
QVQLVESGGGLVQAGGSLRLSCAASGSIFGYYAMGWYRLAPGKERELVAAINWRGTSTYYADSVKGRFTISRDNAKNTVYLQMISLKPEDTAVYYCAARRSVGGYGYWGQGTQVTVSS	high polyreactivity
QVQLVESGGGLVQAGRSLRLSCAASGRIFQWNAMGWYRQAPGKERELVADITYSGSSTNYADSVKGRFTISRDNAKNSVYLQMNSVKPEVSAVYYCTRDFYQYLSYFWHYVYWGQGTQETVSS	low polyreactivity
QVQHVESAGGLVQAGGSLRLSCAASARTFRYYAMGWYRQSPGKERELVAAINYSGGRTYYADSVKGRFTISRDNAKITVYLQMNSLNPEDTAVYYCNAVLGSYLPKFDYWGQGTQVTVSS	high polyreactivity
QVQLVESGGGLVQAGGSLRLSCAASGFTFTDNAMGRYRQAPGKERELVAAISEGSGITYYADSVKGRFTISRDNAKNTVYLQMNSLKPEDTAVYYCAADWLSKYDYWGQGTQVTVSS	low polyreactivity
QVQLVESGGGLVQAGGSLRLSCAASGSTFGYNAMGWYRQAPGKERELVAAISSSGGSTYYADSVKGRFTISRDNAKNTVYLQMNSLKPEDTAVYYCATEFFQYYSTKGYDYWGQGTQVTVSS	low polyreactivity
QVQLVESGGGLVQAGGSLRLSCAASGSTFGYNAMGWYRQAPGKERELVAAISFSSGRTYYADSVKGRFTISRDNAKNTVYLQMNSLKPEDTAVYYCAALQYRRRPYGAVERYDYWGQGTQVTVSS	high polyreactivity
QVQLVESGGGLFQAGGSLRLSCAASGLIFSSNAMGWYRQAPGKERELVATISWSGGSTYYADSVKGRFTISRDKAKNNVYLQMNSQKPEDTAVYYCAAAQRWSFLHYYYYWGQGTQVTVSS	high polyreactivity
QVQLVESGGGLVQAGGSLRLSCAASGFTFGTYTMGWYRQAPGKERELVAAIRSSGGRTYYADSVKGRFTISRDNAKNTVYLQMNSLKPEDTAVYYCAAVLFGYPRTFGTWYDRYYYWGQGTQVTVSS	high polyreactivity
QVQLVESGGGLVQAGGSLRLSCAASGRIFSYYAMGWYRQAPGKERELVATISYSGGSTYYADSVKGRFTISRDNAKNTVYLQMNSLKPEDTAVYYCAATRYPYYSFVRFPSRRFNYWGQGTQVTVSS	high polyreactivity
QVQLVESGGGLVQAGGSLRLSCAASGITFGRKTMGWYRQAPGKERELVAAIDSGGNTYADSVKGRFTISRDNAKNTVYLQMNSLKPEDTAVYYCAVDGGVFSSYGYWGQGTLVTVSS	low polyreactivity
QVQLVESGGGLVQAGGSLRLSCAASGFIFRVNALGGSRPAPGKERVLVAARISSSGSTYYADSVKGRFTISRDNAKNTVYLQMNSLKPEDTAVYYCAADPYYLQQFDYWGQGTQVTVSS	low polyreactivity
QVQLVESGGGLVQAGGSLRLSCAASGRTFKYYAMGWYRQAPGKERELVAAITRSGSTNYADSVKGRFTISRDNAKNSVYLQMNSLKPEDTAVYYCAADVTLYYRGRRYYYWGQGTQVTVSS	high polyreactivity
QVQLVESGGGLVQAGGSLRLSCAASGSTFPQYAMGRYRQAPGKERELVAAISRSGGSTYYADSVKGRFTISRDNAKNTVYLQMNSLKPEDTAVYYCNVKSGFWFYPTMDYWGQGTQVTVSS	high polyreactivity
QVQLVESGGGLVQAGGSLRLSCAASGFIFQRYAMGWYRQAPGKESELVAAISSSGGSTYYADSVKGRFTISRDNAKNTVYLQMNSLKPEDTAVNYCAARVPPRTLAYYYWGQGTQVTVSS	high polyreactivity
QVQLEESGGGLVQAGGRLRLSCAASGRTITRNAMGWYRQAPGKERELVAAISSRGGSTSYADSVKGRFTISRDNAKNTFYLQMNSLKPEDTAVYYCNKKTAASDYDYWGQGTQVTVSS	high polyreactivity
QVQLVESGGRLVQAGGSLRLSCAPSGSIFWGYAMGWYRQAPGKERELVAVISRGGSTYYADSVKGRFTISRDNAKNTVYLKMNSLKPEDTAVYYCAASSSWFYSPEYDYWGQGTQVTVSS	low polyreactivity

Sequence	polyreactivity (PSR sort gate)
QVQLVESGGGLVQAGGSLRLSCAASGSIFVINAMGWYRQAPGKERELVAAISYSGTGTYYADSVKGRFPISRDNAKITVYLQMNSLKPEDTAVYYCAADYYYRYRIYDYWGHGTQVTVSS	low polyreactivity
QVQLVESGGGLVQAGGSLRLSCAASGSTIRYYAMGWYRQAPGKERELVAANTKSGGSTYYADSVKGRFTISRDNAKNTVYLQMNSPKPEDTAVYSCAAVRRWYYPALSEHDYWGQGTQVTVSS	low polyreactivity
QVQLVESGGGLVQAGGSLRLSCAASGRTFSHYAMGWYRQAPGKERELVAAISGSGGTTYYADSVKGRFTISRDNAKNTVYLQMNSLKPEDTAVYYCNTRGRYLMDYWGQGTQVTVSS	high polyreactivity
QVQLVESGGGLVQAGGSLRLSCAASGRTFRRYVMGWYRQAPGKERELVAAISYSGATTYYADSVKGRFTISRDNAKNTVYLQMNSLKPEDTAVYYCAATAPGDRYYWGQGTQVTVSS	high polyreactivity
QVQLVESGGGLVQAGGSLRLICAASGRTFGYYTMGWYRPAPGKERELVARINYIGSSTYYADSVKGRFTISRDNAKNTVYLQMNSLKPEDTAVYYCNADNARGRSGVRRYYWGQGTQVTVSS	high polyreactivity
QVQLVESGGGLVQAGGSLRLRCAASGSIFQPYAMGWYRQAPGKERELVAAITNGGSTYYADSVKGRFTISRDNATNTVYLQMNSLKPEDTAVYYCAADVQSSHEYDYWGQGTQVTVSS	low polyreactivity
QVQLVESGGGLVQAGGSLRLSCAASGLTFSSYAMGWYRQAPGKERELVAAITRGGRTQYADSVKGRFTISRDNAKNTVYLQMNSLKPEDTAVYYCARSGNYYYWGQGTQVTVSS	high polyreactivity
QVQLVESGGGLVQAGGSLRLSCAASGRIFSRNTMGWYRQAPGKEREIVAAISQSGGRTYYADSVKGRFTISRDNAKNPVYLQMNSLNPEDTEVYYCNAQFARSSGFNYWGQGTQVTVSS	high polyreactivity
QVQLVESGGGLVQAGGSLRLSCAASGSTFQYYAMGGYIQAPGKQRQLVAAISSGGSTYYADSVKGRFTISRDNAMNTVYLQMNSLKPEDTAVYYCAADGYYSVSRYTSYKYYYWGQGTQVTVSS	high polyreactivity
QVQLVESGGGLVQAGGSLRLSCAASGNTFNANAMGWYRQAPGKERELVAVISANGGRTYYADSVKGRFTISRDNAKNTVYLQMNSLKPEDTAVYYCATGRYGGQGYPFYYWGQGTQVTVSS	low polyreactivity
QVQLVESGGGLVQAGGSLRLSCAASGRIFDWNAMGWYRQAPGKERELVAAISYSDGSTYYADSVKGRFTISRDNAKNTVYLQMNSLKREDTAVYYCDADFYDRTYITWYEYWGQGTQVTVSS	high polyreactivity
QVQLVESGGGLVQAGGSLRLSCAASGRTFPWYTMGWYRQAPGKERELVAAITRSSGSAYYADSVKGRFTISRDTAKNPVYLQMNSLKQEDTAVYYCAARYWVAGFRGRPYDYWGQGTQVTVSS	high polyreactivity
QVQLVDSGGGLVQAGCSLRLSCAASGSTFVTNDMGWSRKAPGKERELVAAISSGTSTNYADSVKGRFTISRDNAKNTFYLQMNSLNPEDTAVYYCAADSLKRDDYWGQGTQVTVSS	low polyreactivity
QVQLVESGGGLVQAGGSLRLSCAASGFTFYYNAMGGYRQAPGKEREFVAGITRTGGSTYYADSVKGRFTISRDNAMNTVYLQIKSLKPEDTAVYYCAATHYYYGTSRYDYWGQVTQVTVSS	high polyreactivity
QVQLVESGGGLVQAGGSLRLSCAASGRTFRFYAMGWYRQAPGKERELVAAISASGGGTYYADSVKGRFTISRDNAKHTVYLQMNCLKPEDTAVYYCATRRSYKYYWGQGTQVTVSS	high polyreactivity
QVQRVESGVGLVQAGGSLRLRCAASGSIFQSYAMGWYRHAPGKERELVAAITERGGSTYYADSVKGRFTISRDNAKNTVYLQMNSLKPEDTAVYYCAAKAVGLGKSWRGDDYWGQRTQVTVSS	low polyreactivity
